{"source": "patent US20050266465A1", "about": "(MAXYGEN, published 2005)", "binders": {"B1": {"name": "25epi19 (ligand)", "chain": "CDLPQTHSLSNRRTLMLMAQMRRISPFSCLKDRHDFGFPEEEFDGHQAQKVQAIFLLYELIQQTFNLFSTKDSSAAWDETLLEKFYIELFQQMNNLEACVIQEVGVEEIALMNVDSILAVRKYFRRITLYLTEKKYSPCAWEVVRAEIMRSFSFSTNLQESLRSKE"}, "B2": {"name": "B9x14EC4 (ligand)", "chain": "CDLPQTHSLGHRRTMMLLAQMRRISLFSCLKDRHDFRFPQEEFDGNHFQKVQAIFLFYEMMQQTFNLFSTKDSSAAWDETLLEKFYIELFQQMNDLEACVMQEVGVEETPLMNVDSILAVRKYFQRITLYLTEKKYSPCAWEVVRAEIMRSFSFSTNLQESLRSKE"}, "B3": {"name": "14epi17 (ligand)", "chain": "B2 chain with F48L, F55S"}, "B4": {"name": "14epi25 (ligand)", "chain": "B2 chain with F48L, F55S, L111A"}, "B5": {"name": "14epi26 (ligand)", "chain": "B2 chain with F48L, F55S, N113K, V114E"}, "B6": {"name": "14epi19 (ligand)", "chain": "B2 chain with F48A, F55A"}, "B7": {"name": "14epi33 (ligand)", "chain": "B2 chain with Q52P, F55S, N113K, V114E"}, "B8": {"name": "14epi20 (ligand)", "chain": "B2 chain with F48A, F55S"}, "B9": {"name": "14epi16 (ligand)", "chain": "B2 chain with F48L, F55A"}, "B10": {"name": "14epi21 (ligand)", "chain": "B2 chain with F55A"}, "B11": {"name": "14epi34 (ligand)", "chain": "B2 chain with Q52P, F55S, V114E"}, "B12": {"name": "14epi29 (ligand)", "chain": "B2 chain with F48A, F55S, F65A"}, "B13": {"name": "14epi18 (ligand)", "chain": "B2 chain with F48A"}, "B14": {"name": "14epi22 (ligand)", "chain": "B2 chain with F55S"}, "B15": {"name": "14epi31 (ligand)", "chain": "B2 chain with F48A, F55A, N113K, V114E"}, "B16": {"name": "14epi32 (ligand)", "chain": "B2 chain with F48L, Q52P, F55S, N113K, V114E"}, "B17": {"name": "14epi15 (ligand)", "chain": "B2 chain with F48L"}, "B18": {"name": "MonoPEGylated 14epi18 (ligand)", "chain": "MCDLPQTHSLGHRRTMMLLAQMRRISLFSCLKDRHDFRFPQEEFDGNHAQKVQAIFLFYEMMQQTFNLFSTKDSSAAWDETLLEKFYIELFQQMNDLEACVMQEVGVEETPLMNVDSILAVRKYFQRITLYLTEKKYSPCAWEVVRAEIMRSFSFSTNLQESLRSKE", "modifications": "single 40 kDa branched PEG (mPEG2-NHS) on a lysine; positional isomers predominantly monoPEGylated at Lys122 and Lys135"}, "B19": {"name": "MonoPEGylated 25epi19 (ligand)", "chain": "MCDLPQTHSLSNRRTLMLMAQMRRISPFSCLKDRHDFGFPEEEFDGHQAQKVQAIFLLYELIQQTFNLFSTKDSSAAWDETLLEKFYIELFQQMNNLEACVIQEVGVEEIALMNVDSILAVRKYFRRITLYLTEKKYSPCAWEVVRAEIMRSFSFSTNLQESLRSKE", "modifications": "single 40 kDa branched PEG (mPEG2-NHS) on a lysine; positional isomers predominantly monoPEGylated at Lys31, Lys122 and Lys135"}}, "note": "Positions count from the first letter of the chain named.", "data": [{"target": "T1, interferon-alpha receptor (type I interferon receptor comprising receptor subunits IFNAR-2 and IFNAR-1) (human, UniProt P17181 28-557; P48551 27-515)", "T1 sequence (looked up) 1": "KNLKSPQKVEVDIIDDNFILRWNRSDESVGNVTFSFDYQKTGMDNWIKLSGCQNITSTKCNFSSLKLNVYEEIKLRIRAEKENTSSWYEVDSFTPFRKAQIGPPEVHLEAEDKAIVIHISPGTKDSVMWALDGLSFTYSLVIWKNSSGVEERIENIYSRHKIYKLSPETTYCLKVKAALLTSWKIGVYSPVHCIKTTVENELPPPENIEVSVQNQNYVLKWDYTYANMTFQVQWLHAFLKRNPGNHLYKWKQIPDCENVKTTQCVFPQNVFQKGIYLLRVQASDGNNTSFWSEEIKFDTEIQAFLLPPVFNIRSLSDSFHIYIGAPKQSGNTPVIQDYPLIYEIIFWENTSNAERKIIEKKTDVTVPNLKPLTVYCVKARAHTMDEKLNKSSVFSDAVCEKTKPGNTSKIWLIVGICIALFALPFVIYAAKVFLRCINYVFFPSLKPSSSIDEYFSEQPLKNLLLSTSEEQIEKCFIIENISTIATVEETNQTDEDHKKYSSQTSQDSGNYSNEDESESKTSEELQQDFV", "T1 sequence (looked up) 2": "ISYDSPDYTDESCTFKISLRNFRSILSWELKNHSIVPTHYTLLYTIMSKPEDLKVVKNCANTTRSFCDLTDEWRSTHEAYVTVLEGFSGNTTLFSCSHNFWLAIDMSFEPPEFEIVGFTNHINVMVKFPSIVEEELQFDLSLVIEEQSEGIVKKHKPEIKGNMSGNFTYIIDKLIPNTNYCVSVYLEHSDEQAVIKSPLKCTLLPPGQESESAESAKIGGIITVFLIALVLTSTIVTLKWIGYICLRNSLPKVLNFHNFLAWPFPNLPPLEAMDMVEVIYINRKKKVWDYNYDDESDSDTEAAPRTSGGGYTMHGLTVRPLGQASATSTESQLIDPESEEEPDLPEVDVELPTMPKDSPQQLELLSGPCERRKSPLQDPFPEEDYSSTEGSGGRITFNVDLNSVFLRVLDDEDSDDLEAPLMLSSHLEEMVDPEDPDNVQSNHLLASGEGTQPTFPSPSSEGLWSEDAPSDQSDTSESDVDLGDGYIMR", "test": "cell-based or functional assay", "units": {"HeLa/EMCV Antiviral activity relative to huIFN-alpha 2b": "fold", "HuH7/EMCV Antiviral activity relative to huIFN-alpha 2b": "fold"}, "values": [{"binder": "B1", "HeLa/EMCV Antiviral activity relative to huIFN-alpha 2b": "> 8", "HuH7/EMCV Antiviral activity relative to huIFN-alpha 2b": "> 8"}, {"binder": "B2", "HeLa/EMCV Antiviral activity relative to huIFN-alpha 2b": "> 8", "HuH7/EMCV Antiviral activity relative to huIFN-alpha 2b": "> 8"}, {"binder": "B3", "HeLa/EMCV Antiviral activity relative to huIFN-alpha 2b": "> 8", "HuH7/EMCV Antiviral activity relative to huIFN-alpha 2b": "> 8"}, {"binder": "B4", "HeLa/EMCV Antiviral activity relative to huIFN-alpha 2b": "> 8", "HuH7/EMCV Antiviral activity relative to huIFN-alpha 2b": "> 8"}, {"binder": "B5", "HeLa/EMCV Antiviral activity relative to huIFN-alpha 2b": "> 8"}, {"binder": "B6", "HeLa/EMCV Antiviral activity relative to huIFN-alpha 2b": "> 8", "HuH7/EMCV Antiviral activity relative to huIFN-alpha 2b": "> 8"}, {"binder": "B7", "HeLa/EMCV Antiviral activity relative to huIFN-alpha 2b": "> 8", "HuH7/EMCV Antiviral activity relative to huIFN-alpha 2b": "> 8"}, {"binder": "B8", "HeLa/EMCV Antiviral activity relative to huIFN-alpha 2b": "> 8", "HuH7/EMCV Antiviral activity relative to huIFN-alpha 2b": "> 8"}, {"binder": "B9", "HeLa/EMCV Antiviral activity relative to huIFN-alpha 2b": "> 8", "HuH7/EMCV Antiviral activity relative to huIFN-alpha 2b": "> 8"}, {"binder": "B10", "HeLa/EMCV Antiviral activity relative to huIFN-alpha 2b": "> 8", "HuH7/EMCV Antiviral activity relative to huIFN-alpha 2b": "> 8"}, {"binder": "B11", "HeLa/EMCV Antiviral activity relative to huIFN-alpha 2b": "> 8", "HuH7/EMCV Antiviral activity relative to huIFN-alpha 2b": "> 8"}, {"binder": "B12", "HeLa/EMCV Antiviral activity relative to huIFN-alpha 2b": "> 8"}, {"binder": "B13", "HeLa/EMCV Antiviral activity relative to huIFN-alpha 2b": "> 8", "HuH7/EMCV Antiviral activity relative to huIFN-alpha 2b": "> 8"}, {"binder": "B14", "HeLa/EMCV Antiviral activity relative to huIFN-alpha 2b": "> 8"}, {"binder": "B15", "HeLa/EMCV Antiviral activity relative to huIFN-alpha 2b": "> 8"}, {"binder": "B16", "HeLa/EMCV Antiviral activity relative to huIFN-alpha 2b": "> 8", "HuH7/EMCV Antiviral activity relative to huIFN-alpha 2b": "> 8"}, {"binder": "B17", "HeLa/EMCV Antiviral activity relative to huIFN-alpha 2b": "> 8", "HuH7/EMCV Antiviral activity relative to huIFN-alpha 2b": "> 8"}]}, {"target": "T1, interferon-alpha receptor (type I …)", "test": "cell-based or functional assay", "remark": "another data set of the same source", "units": {"TH1 activity (IFN-gamma in supernatants of naive T cells), Fold over IFN-alpha 2a": "fold"}, "values": [{"binder": "B1", "TH1 activity (IFN-gamma in supernatants of naive T cells), Fold over IFN-alpha 2a": "> 30"}, {"binder": "B13", "TH1 activity (IFN-gamma in supernatants of naive T cells), Fold over IFN-alpha 2a": "> 30"}]}, {"target": "T1, interferon-alpha receptor (type I …)", "test": "cell-based or functional assay", "remark": "another data set of the same source", "units": {"HeLa-EMCV antiviral assay, antiviral activity relative to monoPEGylated IFN-alpha 2a": "fold"}, "values": [{"binder": "B18", "HeLa-EMCV antiviral assay, antiviral activity relative to monoPEGylated IFN-alpha 2a": "> 10"}, {"binder": "B19", "HeLa-EMCV antiviral assay, antiviral activity relative to monoPEGylated IFN-alpha 2a": "> 10"}]}]}
